{"source": "patent US5532348", "key": {"[1]": {"target": "HPV16 E6, wheat germ extract translated (human papillomavirus type 16) (UniProt P03126)"}, "[2]": {"target": "HPV16 E6, wheat germ extract translated (human papillomavirus type 16) (UniProt P03126)", "remark": "listed apart in the source"}}, "data": [{"substance": "GST-E6-AP fusion protein with amino acids 371 to 440 of SEQ ID NO:1 (SEQ ID NO:2)", "values": [{"measurement": "percent of the input 35S-labeled HPV16 E6 bound", "setting": "[1]", "result": 50, "unit": "%"}]}, {"substance": "GST-E6-AP fusion protein, amino-terminal portion (amino acids 213 to 489 of SEQ ID NO:1)", "values": [{"measurement": "percent of the input 35S-labeled HPV16 E6 bound", "setting": "[1]", "result": 50, "unit": "%"}]}, {"substance": "synthetic peptide consisting of the 18 mer region, amino acids 391 to 408 of SEQ ID NO:1 (SEQ ID NO:3)", "values": [{"measurement": "molar excess for fifty percent binding competition", "setting": "[2]", "result": 5000}]}]}
